The record followed here is PMC5070708.

The assay deals with ILz(6):TRAIL (human) (UniProt P50591). Description: SEC. Background: SEC sorts molecules by how far they enter the pores of the column.

“And” between values parts separate entries of the source, which are not always exact repeats. Equal values may be shown once.

One may read the stoichiometry N as a count of units in the complex or per binding partner. For “ILz(6):TRAIL (from UniProt P50591 114-281) (ligand)”, the stoichiometry N was 3 and 6.
